# Where two headings read alike, the source gives them in different places.
# Tests used:
# [1] = biological target: T1, full-length wildtype CSF-1R (wt CSF-1R) (human, UniProt P07333 20-972); assay: cell-based or functional assay
# [2] = biological target: mutant CSF-1R L301S Y969F (human) (UniProt P07333); assay: cell-based or functional assay
# [3] = biological target: CSF-1R ECD (R&D-Systems 329-MR or in-house subcloned pCMV-presS-HisAvitag-hCSF-1R-ECD) (human) (UniProt P07333); assay: SPR (BIACORE A100), 35 C, antibody captured, CSF-1R ECD in solution
# CSF-1R ECD (R&D-Systems 329-MR or in-house subcloned pCMV-presS-HisAvitag-hCSF-1R-ECD) (human), sequence (P07333 20-517 limits assumed): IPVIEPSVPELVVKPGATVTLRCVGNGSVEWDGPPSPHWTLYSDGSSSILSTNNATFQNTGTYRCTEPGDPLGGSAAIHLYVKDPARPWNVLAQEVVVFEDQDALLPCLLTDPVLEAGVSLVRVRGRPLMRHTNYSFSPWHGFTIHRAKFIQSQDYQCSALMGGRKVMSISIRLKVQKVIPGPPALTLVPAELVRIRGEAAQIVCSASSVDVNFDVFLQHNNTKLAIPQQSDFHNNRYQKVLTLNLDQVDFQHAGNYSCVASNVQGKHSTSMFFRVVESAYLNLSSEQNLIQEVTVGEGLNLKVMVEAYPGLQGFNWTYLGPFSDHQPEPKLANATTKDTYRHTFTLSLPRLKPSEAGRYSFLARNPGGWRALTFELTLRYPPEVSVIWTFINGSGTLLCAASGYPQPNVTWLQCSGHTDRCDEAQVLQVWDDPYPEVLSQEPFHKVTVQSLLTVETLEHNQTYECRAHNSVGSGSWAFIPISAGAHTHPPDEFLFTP
# [4] = biological target: huCSF-1R-huFc chimera (soluble extracellular domain) (human) (UniProt P07333); assay: competition ELISA: antibody on plate-bound huCSF-1R-huFc, then 3 ng/ml CSF-1
# huCSF-1R-huFc chimera (soluble extracellular domain) (human), sequence (P07333 20-517, change not shown): as the sequence (P07333 20-517 limits assumed) above
# [5] = biological target: CSF-1R ECD (R&D-Systems 329-MR or in-house subcloned pCMV-presS-HisAvitag-hCSF-1R-ECD) (human) (UniProt P07333); assay: SPR cross-competition, 25 C; second antibody on CSF-1R held by captured Antibody 1; competitor <CSF-1R>9D11.2E8
# [6] = biological target: CSF-1R ECD (R&D-Systems 329-MR or in-house subcloned pCMV-presS-HisAvitag-hCSF-1R-ECD) (human) (UniProt P07333); assay: SPR cross-competition, 25 C; second antibody on CSF-1R held by captured Antibody 1; competitor <CSF-1R>10H2.2F12
# [7] = biological target: CSF-1R ECD (R&D-Systems 329-MR or in-house subcloned pCMV-presS-HisAvitag-hCSF-1R-ECD) (human) (UniProt P07333); assay: SPR cross-competition, 25 C; second antibody on CSF-1R held by captured Antibody 1; competitor SC-02, clone 2-4A5
# CSF-1R ECD (D1-D3) = biological target: T2, CSF-1R ECD (D1-D3) (human, UniProt P07333 20-296, limits assumed); assay: as in WO2011070024, Example 10 (method not told here)
# T2 construct: also called domains D1 to D3 of the extracellular domain of human CSF-1R
# T2 sequence (P07333 20-296 limits assumed): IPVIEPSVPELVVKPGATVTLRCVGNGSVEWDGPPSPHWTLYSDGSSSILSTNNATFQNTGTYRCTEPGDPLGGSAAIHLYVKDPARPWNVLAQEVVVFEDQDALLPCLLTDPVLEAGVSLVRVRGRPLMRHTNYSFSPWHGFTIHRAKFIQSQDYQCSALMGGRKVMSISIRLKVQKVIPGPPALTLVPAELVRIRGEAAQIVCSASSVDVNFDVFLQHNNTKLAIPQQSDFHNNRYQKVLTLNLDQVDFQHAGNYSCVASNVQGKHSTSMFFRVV
# [8] = biological target: T3, CSF-1R ECD (R&D-Systems 329-MR or in-house subcloned pCMV-presS-HisAvitag-hCSF-1R-ECD) (human, UniProt P07333 20-517); assay: SPR (BIACORE A100), 35 C, antibody captured, CSF-1R ECD in solution
# T3 construct: also called CSF-1R (R&D-Systems Cat. No. 329-MR); human CSF-1R Extracellular Domain (comprising domains D1 to D5)
# T3 sequence (P07333 20-517 limits assumed): as the sequence (P07333 20-517 limits assumed) above
# Procedure: CSF-1R ECD (R&D-Systems 329-MR or in-house subcloned pCMV-presS-HisAvitag-hCSF-1R-ECD were added in various concentrations in solution. Association was measured by an CSF-1R-injection of 1.5 minutes at 35° C.; dissociation was measured by washing the chip surface with buffer for 10 minutes at 35° C. Anti CSF-IR SC-02, clone 2-4A5 (Santa Cruz Biotechnology, US; see also Sherr, C. J., et al., Cell 41 (1985) 665-676), which inhibits the ligand-receptor interaction, was used as reference control.
# [9] = biological target: T1, full-length wildtype CSF-1R (wt CSF-1R); assay: cell-based or functional assay; remark: listed apart in the source
# [10] = biological target: T1, full-length wildtype CSF-1R (wt CSF-1R); assay: cell-based or functional assay; remark: listed apart in the source
# [11] = biological target: T4, huCSF-1R-huFc chimera (soluble extracellular domain) (human, UniProt P07333 20-517); assay: competition ELISA: antibody on plate-bound huCSF-1R-huFc, then 3 ng/ml CSF-1
# T4 construct: Captured on the plate by anti Fc-gamma; also called huCSF-1R ECDhuFc chimera; not shown: human Fc part
# T4 sequence (P07333 20-517, change not shown): as the sequence (P07333 20-517 limits assumed) above
# Procedure: At the beginning, plates were coated with […] goat F(ab′)₂ biotinylated anti Fcγ (Jackson ImmunoResearch., Cat. No. 109-006-170) for 1 hour (h).
# Thereafter the wells were blocked with PBS supplemented with 0.2% Tween®-20 and 2% BSA (Roche Diagnostics GmbH, DE) for 0.5 h. 75 ng/ml of huCSF-1R-huFc chimera (soluble extracellular domain) was immobilized to plate for 1 h. Then dilutions of purified antibodies in PBS/0.05% Tween20/0.5% BSA were incubated for 1 h. After adding a mixture of 3 ng/ml CSF-1 (Biomol, DE, Cat. No. 60530), 50 ng/ml biotinylated anti CSF-1 clone BAF216 (R&D Systems, UK) and 1:5000 diluted streptavidin HRP (Roche Diagnostics GmbH, DE, Cat. No. 11089153001) for 1 h the plates were washed 6 times with PBST. Anti CSF-IR SC-02, clone 2-4A5 (Santa Cruz Biotechnology, US), which inhibits the ligand-receptor interaction, was used as positive control. Plates were developed with freshly prepared BM Blue® POD substrate solution (BM Blue®:3,3″-5,5″-Tetramethylbenzidine, Roche Diagnostics GmbH, DE, Cat. No. 11484281001) for 30 minutes at RT. Absorbance was measured at 370 nm. […] Anti CSF-IR SC-02, clone 2-4A5 (Santa Cruz Biotechnology, US), which inhibits the ligand-receptor interaction, was used as reference control.
# mutant CSF-1R L301S Y969F (human), sequence (P07333 20-972 L301S/Y969F limits assumed): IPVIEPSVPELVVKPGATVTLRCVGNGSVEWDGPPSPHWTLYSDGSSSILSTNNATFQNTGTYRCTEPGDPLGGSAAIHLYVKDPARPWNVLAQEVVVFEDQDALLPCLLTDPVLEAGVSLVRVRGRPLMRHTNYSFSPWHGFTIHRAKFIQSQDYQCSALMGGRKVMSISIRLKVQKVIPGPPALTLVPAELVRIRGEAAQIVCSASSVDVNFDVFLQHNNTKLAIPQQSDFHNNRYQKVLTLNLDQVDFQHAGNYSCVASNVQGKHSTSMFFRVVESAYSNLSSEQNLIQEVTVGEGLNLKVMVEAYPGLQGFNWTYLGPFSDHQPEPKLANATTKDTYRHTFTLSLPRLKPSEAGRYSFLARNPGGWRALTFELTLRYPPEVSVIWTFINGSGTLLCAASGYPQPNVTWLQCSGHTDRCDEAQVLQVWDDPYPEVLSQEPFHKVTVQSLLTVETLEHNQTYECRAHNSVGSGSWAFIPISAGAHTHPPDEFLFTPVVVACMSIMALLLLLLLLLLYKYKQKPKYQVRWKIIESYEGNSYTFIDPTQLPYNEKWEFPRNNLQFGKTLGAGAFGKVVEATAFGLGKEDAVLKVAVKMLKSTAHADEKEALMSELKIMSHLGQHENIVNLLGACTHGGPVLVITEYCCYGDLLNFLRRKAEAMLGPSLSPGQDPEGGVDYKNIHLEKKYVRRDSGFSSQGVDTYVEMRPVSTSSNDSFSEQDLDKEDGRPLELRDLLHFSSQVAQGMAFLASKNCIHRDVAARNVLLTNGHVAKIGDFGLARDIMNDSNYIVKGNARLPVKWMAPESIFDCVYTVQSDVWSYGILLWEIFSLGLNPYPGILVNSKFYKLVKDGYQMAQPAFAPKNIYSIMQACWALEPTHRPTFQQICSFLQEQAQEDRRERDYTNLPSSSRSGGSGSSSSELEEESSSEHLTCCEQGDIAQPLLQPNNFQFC
# T1 sequence (P07333 20-972 limits assumed): as the sequence (P07333 20-972 L301S/Y969F limits assumed) above, with S282L, F950Y counted along it
Molecule,"% Inhibition of growth of NIH3T3-wtCSF-1R cells, 10 µg/ml antibody [1] [%]","% inhibition of CSF-1 induced growth of BeWo cells, 10 µg/ml antibody concentration [1] [%]","% survival of NIH3T3-wtCSF-1R cells, 10 µg/ml antibody (CellTiterGlo) [1] [%]","IC50 CSF-1R Phosphorylation (CSF-1-induced, NIH3T3-CSF-1R cells, ELISA of lysate) [1] [µg/mL]",IC50 of inhibition of survival of human monocytes with huCSF-1 (CellTiterGlo) [1] [pM],"% Inhibition of growth of NIH3T3-mutant CSF-1R cells, 10 µg/ml antibody [2] [%]","% survival of NIH3T3-mutant CSF-1R cells, 10 µg/ml antibody (CellTiterGlo) [2] [%]",binding result (CSF-1R ECD (D1-D3)),Kd [8] [pM],koff [8] [s⁻¹],kon [8] [M⁻¹ s⁻¹],t1/2 [8] [min],also measured
"Anti CSF-1R SC-02, clone 2-4A5 (Santa Cruz Biotechnology, US) (antibody)",38,40,62,0.412,2400,34,66,,,,,,Kd [3]: 2730 pM; koff [3]: 0.00139 s⁻¹; kon [3]: 509000 M⁻¹ s⁻¹; t1/2 [3]: 8.31 min; IC50 [4]: 0.0309 µg/mL; percentage (%) of expected binding response [5]: 37%; percentage (%) of expected binding response [6]: 42%; percentage (%) of expected binding response [7]: -2%
goat polyclonal anti-CSF-1R antibody ab10676 (abcam),,,,,,,,,,,,,"percentage of inhibition the growth of NIH3T3-mutant CSF-1R L301S Y969F recombinant cells, up to 20 µg/ml [2]: < 0%"
"<CSF-1R>10H2.2F12 (antibody, V domains shown, Mouse monoclonal antibody from a hybridoma) VH: QVQLKQSGPGLVQPSQSLSITCTVSGFSLTTYGINWVRLSPGKGLEWLGMIWRGGNTDYNAAFMSRLTITKDNSKNHVFFQLNSLQPDDTAIYFCAKSGGLRLYYAMDYWGQGTSVTVSS VL: DVVMTQPPLSLPVSLGDQASISCRSSQSLVHSNGNTYLHWYLQKPGQSPKLLIYKVSNRLSGVPDRFSGSGSGTDFTLKISRVEAEDLGVYFCSQSSHVPWTFGGGTKLEIRR",97,100,3,0.0445,600,65,35,no binding,780,0.0004,520000,28.6,
"<CSF-1R>9D11.2E8 (antibody, V domains shown, Mouse monoclonal antibody from a hybridoma (NMRI mice), captured by anti mouse Fc-gamma in SPR; also called deposited antibody DSM ACC2920) VH: DVKLVESGGGLVKLGGSLKLSCAASGFTFSSYYMSWIRQTPDKRLELVAAIKTNGDNFDYPDTVKGRFTISRDNAKNTLYLQMNSLKSEDTALYYCARSQLLRYYAMDYWGQGTSVTVSS VL: DVVMTQTPLSLPVSLGDQASISCRSSQSLVHSNGNTYLHWYLQKPGQSPKLLIYKVSNRFSGVPDRFSGSGSGTDFTLKISSVEAEDLGVYFCSQSSHVPWTFGGGTKLEIKR",,,,,,,,no binding,770,0.00036,470000,32,"IC50 CSF-1R Phosphorylation (CSF-1-induced, NIH3T3-CSF-1R cells, ELISA of lysate) [9]: 0.0728 µg/mL; IC50 of inhibition of survival of human monocytes with huCSF-1 (CellTiterGlo) [10]: 700 pM; IC50 [11]: 0.01 µg/mL"

# Source: patent publication US20140336363A1 (Hoffmann-La Roche, published 2014)
